The record followed here is patent US20250361305A1 (ORIONIS BIOSCIENCES, published 2025).

The target of assay [1] is T1, PD-L1 antigen (ELISA of Example 2) (human, UniProt Q9NZQ7 19-239, limits assumed). Briefly: ELISA, signal on PD-L1 antigen.
For assay [2], the target named is T1, PD-L1 antigen (ELISA of Example 2). Briefly: ELISA, signal on PD-L1 antigen over control.
Assay [3] has as its target T2, PD-1 antigen (ELISA of Example 2) (human, UniProt Q15116 25-167, limits assumed). Kind of assay: ELISA, signal on PD-1 antigen. Further: test concentration or dose not given here.
Assay [4] deals with T2, PD-1 antigen (ELISA of Example 2). Kind of assay: ELISA, signal on PD-1 antigen over control.
In assay [5] the target is T3, human PD-L1-Fc (SinoBiological) (human, UniProt Q9NZQ7 19-239).
T3 construct: Bought; not shown: Fc of a bought fusion protein
T3 sequence (Q9NZQ7 19-239 limits assumed): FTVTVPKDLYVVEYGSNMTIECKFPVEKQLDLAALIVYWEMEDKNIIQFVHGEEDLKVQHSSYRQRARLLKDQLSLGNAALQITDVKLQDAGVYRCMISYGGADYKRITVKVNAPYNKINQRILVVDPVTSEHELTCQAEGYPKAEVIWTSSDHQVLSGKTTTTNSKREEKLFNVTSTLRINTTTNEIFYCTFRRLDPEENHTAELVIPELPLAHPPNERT
Briefly: BLI (Octet RED96), VHH on Penta-HIS sensor, human PD-L1-Fc in solution.

Assay [6] addresses T4, cynomolgus PD-L1-Fc (SinoBiological) (cynomolgus, UniProt G7PSE7 19-238).
T4 construct: Bought; also called Cyno PD-L1; not shown: Fc carrier (and any linker) of the bought SinoBiological fusion
Kind of assay: BLI (Octet RED96), VHH on Penta-HIS sensor, cynomolgus PD-L1-Fc in solution.

The target of assay [7] is T5, recombinant extracellular domain of PD-L1 with C-terminal FLAG-tag (human, UniProt Q9NZQ7 19-238).
T5 construct: extracellular domain; The sentence itself names no species; Immobilised through the M2 anti-FLAG antibody; not shown: C-terminal FLAG-tag
T5 sequence (Q9NZQ7 19-238): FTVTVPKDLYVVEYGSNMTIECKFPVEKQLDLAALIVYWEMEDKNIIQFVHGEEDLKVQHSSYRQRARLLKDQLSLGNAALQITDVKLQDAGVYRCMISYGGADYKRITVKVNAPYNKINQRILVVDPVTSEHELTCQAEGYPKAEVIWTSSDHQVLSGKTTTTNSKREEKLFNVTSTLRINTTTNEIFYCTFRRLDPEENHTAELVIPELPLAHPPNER
Briefly: plate binding assay, VHH against hPD-1-hFc binding to immobilised PD-L1 ECD-FLAG.

T4 sequence (G7PSE7 entry or part of it limits assumed): as the sequence (Q9NZQ7 19-238) above, with A33T, A34S, S62N, R68Q, Q82R, F173L, T185A, T192I, H215L counted along it
T2 sequence (Q15116 25-167 limits assumed): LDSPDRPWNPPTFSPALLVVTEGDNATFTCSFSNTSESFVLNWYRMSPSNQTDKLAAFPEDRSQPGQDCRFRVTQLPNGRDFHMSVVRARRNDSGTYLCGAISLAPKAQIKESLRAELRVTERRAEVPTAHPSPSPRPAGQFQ
T1 sequence (Q9NZQ7 19-239 limits assumed): as the sequence (Q9NZQ7 19-239 limits assumed) above

B1: 3LIG29 (VHH)
VHH: QVQLQESGGGLVQAGGSMRLSCAASGFTFSSYGMSWVRQTPGKGPEWVSAIDSGGGSTSYADSVKGRFTISRDNAKNTLYLQMNSLKPEDTAVYYCAQGYYCSGYGCSDYWGQGTQVTVSS
notes: PD-L1 VHH
Turning to B1, the ELISA in assay [1] came to 3.96. In addition, the A/control in assay [2] was determined as 40.9.

B2: 2PD-12 (VHH)
VHH: QVQLQESGGGLVQAGGSLRLSCAVSGFILDYYGIGWFRQAPGKEREAVSCISSSDGSTYYADSVKGRFTISRDNALNTLYLQMNSLKPEDTAVYHCATATLCDGGIWGYWGQGTQVTVSS
notes: PD-1 VHH
For the molecule B2, the “ELISA A” value in assay [3] came to 3.81. Besides, in assay [4], the A/control came to 21.5.

B3: 3PD55 (VHH)
VHH: QVQLQESGGGLAQAGGSLRLSCEGSGLSLDYDGVGWFRQAPGKEREAVSCISSSDGSTYYADSVKGRFTISRGNALNTLYLQMNSLKPEDTAVYYCATATLCDGGIWGYWGQGTQVTVSS
notes: PD-1 VHH
For B3, the “ELISA A” value in assay [3] is 3.58. In addition, in assay [4], the A/control came out at 40.4.

B4: 3PD82 (VHH)
VHH: QVQLQESGGGSVQPGGSLRLSCAVSGFILDYYGIGWFRQAPGKEREAVSCISSSDGSTYYADSVKGRFTISRDNALNTLYLQMNSLKPEDTAVYYCATATLCDGGIWGYWGQGTQVTVSS
notes: PD-1 VHH
On to B4, for which the “ELISA A” value in assay [3] is 4. This molecule also came in with an A/control in assay [4] of 45.1.

B5: 2PD82 (VHH)
VHH: QVQLQESGGGLVQPGGSLRLSCTTSGFAFGSYDMGWVRQAPGKGPEWVSGINSGGRITDYADSVTGRFTISRDNAKNTLYLQMNSLKPEDTAVYYCAQGDRSSWHYYGMDYWGKGTQVTVSS
notes: PD-1 VHH
Consider B5, for which, in assay [3], the “ELISA A” value turned out to be 2.97. Besides, in assay [4], the A/control turned out to be 4.38.

B6: 2PD23 (VHH)
VHH: QVQLQESGGGLVQPGGSLRLSCAASGFSMDYYAIAWFRQAPGKEREEISCITGSDFMVDTYYVASVKGRFTISRDNAENTAYLQMNNLKPEDTGVYFCAVRSTANTLCPSHYSVMDYWGKGTQVTVSS
notes: PD-1 VHH
As to B6, in assay [3], the “ELISA A” value is 0.94. The A/control in assay [4] was 4.56.

B7: 2PD26 (VHH)
VHH: QVQLQESGGGLVQAGGSLRLSCAASGFSMDYYAIAWFRQAPGKEREEISCITGSDFMVDTYYVASVKGRFTISRDNAENTAYLQMNNLKPEDTGVYFCAVRSTANTLCPSHYSVMDYWGKGTQVTVSS
notes: PD-1 VHH
For B7, the “ELISA A” value in assay [3] was found to be 0.718. This molecule also yielded an A/control in assay [4] of 4.2.

B8: 2PD-106 (VHH)
VHH: QVQLQESGGGLVQPGGSLRLSCSASGFSMDYYAIAWFRQAPGKEREEISCITGSDFMVDTYYVASVKGRFTISRDNAKNTAHLQMNSLKPEDTGVYFCAVRSTANTLCPSHYSVMDYWGKGTQVTVSS
notes: PD-1 VHH
With B8, in assay [3], the “ELISA A” value amounted to 1.46. Further, the A/control in assay [4] was found to be 6.9.

B9: 2PD90 (VHH)
VHH: QVQLQESGGGLVQPGGSLRLSCSASGFSVDYYAIAWFRQAPGKEREEISCITGSDFMVDTYYVASVKGRFTISRDNAKNTAYLQMNSLKPEDTGVYFCAVRSTANTLCPSHYSIMDYWGKGTQVTVSS
notes: PD-1 VHH
As to B9, the “ELISA A” value in assay [3] is 1.34. The molecule further registered an A/control in assay [4] of 5.23.

B10: 2PD-152 (VHH)
VHH: QVQLQESGGGLVQTGESLRLSCAASGIIKSINFMGWYRQPPGTKRELVASTTSDGRTTVADSVKGRFTISRDNAKNTIYLEMSSLKPEDTATYWCNADIWLPSDRMYNYWGQGTQVTVSS
notes: PD-1 VHH
Regarding B10, in assay [3], the “ELISA A” value came out at 2.31. In addition, the A/control in assay [4] stood at 6.38.

B11: 2LIG176 VHH-(His)6 (pHEN6C-PelB-PD-L1 VHH-(His)6) (VHH)
VHH: QVQLQESGGGLVQAGGSLRLSCAASESIFSIEAMGWYRQAPGKQRELVAAIFGGGFTNYADSVKGRFTISRDNANRTVYLQMNSLKPEDTAVYYCNADLVSGSSRLYDYWGQGTQVTVSS
Turning to B11, in assay [5], binding was characterised by a dissociation constant (Kd) of 6.87 nM, the koff was found to be 0.00805 s⁻¹ and the kon worked out at 1.18e+06 M⁻¹ s⁻¹. Besides, in assay [6], the Kd came to 11.3 nM, the koff came out at 0.00573 s⁻¹ and the kon was determined as 508000 M⁻¹ s⁻¹. In addition, in assay [7], the IC50 was determined as 5.68 ng/mL.

B12: 2LIG27 VHH-(His)6 (pHEN6C-PelB-PD-L1 VHH-(His)6) (VHH)
VHH: QVQLQESGGGVVQAGGSLRLSCTASGTIFSINRMDWFRQAPGKQRELVALITSDGTPTYADSAKGRFTISRDNTKKTVSLQMNSLKPEDTAVYYCHVSSGVYNYWGQGTQVTVSS
As to B12, in assay [5], the Kd was determined as 7.51 nM, the koff stood at 0.0035 s⁻¹ and the kon was 472000 M⁻¹ s⁻¹. In addition, in assay [6], the Kd turned out to be 8.74 nM, the koff came to 0.0028 s⁻¹ and the kon was determined as 321000 M⁻¹ s⁻¹. In addition, the IC50 in assay [7] turned out to be 9.57 ng/mL.

B13: 2LIG3 VHH-(His)6 (pHEN6C-PelB-PD-L1 VHH-(His)6) (VHH)
VHH: QVQLQESGGGLVQAGGSLRLSCTASGTIFSINHMDWFRQAPGKQRELVALITSDGFPTYADSAKGRFTISRDNTKKTVSLQMNSLKPEDTAVYYCHVSSGVYNYWGQGTQVTVSS
Consider B13, for which, in assay [5], the dissociation constant Kd is 1.19 nM, the koff stood at 0.000448 s⁻¹ and the kon came to 373000 M⁻¹ s⁻¹. Further, in assay [6], the Kd came to 0.89 nM, the koff amounted to 0.000318 s⁻¹ and the kon is 358000 M⁻¹ s⁻¹. Further, the IC50 in assay [7] was 18.9 ng/mL.

B14: 2LIG97 VHH-(His)6 (pHEN6C-PelB-PD-L1 VHH-(His)6) (VHH)
VHH: QVQLQESGGGLVQAGESLRLSCTASGTIFSINRMDWFRQAPGKQRELVALITSDGTPTYADSAKGRFTISRDNTKKTVSLQMNSLKPEDTAVYYCHVSSGVYNYWGQGTQVTVSS
Take B14: in assay [5], the affinity, expressed as Kd, was 4.35 nM; the koff is 0.00198 s⁻¹; the kon came to 423000 M⁻¹ s⁻¹. In assay [6], the Kd came to 9.16 nM, the koff was 0.00293 s⁻¹ and the kon was found to be 319000 M⁻¹ s⁻¹. Also, the IC50 in assay [7] was 4.81 ng/mL.

B15: 2LIG99 VHH-(His)6 (pHEN6C-PelB-PD-L1 VHH-(His)6) (VHH)
VHH: QVQLQESGGGLVQAGGSLRLSCTASGTIFSINRMDWFRQAPGKQRELVALITSDGTPAYADSAKGRFTISRDNTKKTVSLQMNSLKPEDTAVYYCHVSSGVYNYWGQGTQVTVSS
In assay [5], B15 displayed a Kd of 0.875 nM, a koff of 0.000634 s⁻¹ and an on-rate (kon) of 729000 M⁻¹ s⁻¹. In assay [6], this molecule returned a dissociation constant Kd of 1.01 nM, an off-rate constant (koff) of 0.000585 s⁻¹ and a kon of 584000 M⁻¹ s⁻¹. Moreover, in assay [7], the IC50 came to 6.21 ng/mL.

B16: 3LIG8 VHH-(His)6 (pHEN6C-PelB-PD-L1 VHH-(His)6) (VHH)
VHH: QVQLQESGGGLVQPGGSLRLSCTASGTIFSINRMDWFRQAPGKQRELVALITSDGTPTYADSAKGRFTISRDNTKKTVSLQMNSLKPEDTAVYYCHVSSGVYNYWGQGTQVTVSS
In assay [5], B16 had a Kd of 8.77 nM, a koff of 0.00419 s⁻¹ and a kon of 484000 M⁻¹ s⁻¹. In assay [6], this molecule yielded a Kd of 5.98 nM, a koff of 0.00305 s⁻¹ and a kon of 812000 M⁻¹ s⁻¹. Also, the IC50 in assay [7] stood at 12.8 ng/mL.

B17: 2PD-16 (VHH)
VHH: QVQLQESGGGLVQAGGSLRLSCAASGGFNRVSYMGWYRQAPGTKRELVASVTSGGEITIADSVKGRFTVSRDNSKNTLYLQMNGLKPEDGATYWCNADIWVSDARMYNYWGQGTQVTVSS
notes: PD-1 VHH
Take B17: the “ELISA A” value in assay [3] is 1.83. The molecule further gave an A/control in assay [4] of 3.84.

B18: 2PD71 (VHH)
VHH: QVQLQESGGGLVQTGESLRLSCAASGGFNRVSYMGWYRQAPGSKRELVASVTSGGEITVADSVKGRFTVSRDNNKNTLYLQMNGLKPEDGATYWCNADIWVSDARMYNYWGQGTQVTVSS
notes: PD-1 VHH
Regarding B18, the “ELISA A” value in assay [3] came to 2.51. Further, in assay [4], the A/control amounted to 3.59.

B19: 2LIG189 VHH-(His)6 (pHEN6C-PelB-PD-L1 VHH-(His)6) (VHH)
VHH: QVQLQESGGGLVQAGGSLRLSCAASGKIFSGNDMGWYRQAPGKQRELVGIITSGGITDYADAVKGRFTISRDNAKNMMYLQMNSLKPEDTAVYYCNMRDRTIWWGQGTQVTVSS
In assay [5], B19 yielded a Kd of 3.03 nM, a koff of 0.000524 s⁻¹ and a kon of 174000 M⁻¹ s⁻¹. In assay [6], this molecule displayed a Kd of 3.8 nM, a koff of 0.000437 s⁻¹ and a kon of 114000 M⁻¹ s⁻¹. Moreover, the IC50 in assay [7] was found to be 8.81 ng/mL.

B20: 2PD8 (VHH)
VHH: QVQLQESGGGSVQAGDSLRLSCTASGRTFSSLGMGWFRQAPGKEREFVSAIAWNGASTYYTESVKGRFTISRDDAKNTVYLQMNSLKPTDTAVYFCAASGLGSVVVTANEYDYWGQGTQVTVSS
notes: PD-1 VHH
With B20, the “ELISA A” value in assay [3] was 0.763. The molecule further gave an A/control in assay [4] of 3.03.

B21: 2PD27 (VHH)
VHH: QVQLQESGGGSVQPGKSLRLSCAASGRTFSSLGMGWFRQAPGKEREFVSAIAWNGASTYYTESVKGRFTISRDDAKNTVYLQMNSLKPTDTAVYFCAASGLGSVVVTANEYDYWGQGTQVTVSS
notes: PD-1 VHH
As for B21, in assay [3], the “ELISA A” value came out at 1.14. Moreover, the A/control in assay [4] is 3.45.
